Reference: patent US10160812B2, “Bispecific HER2 antibodies” (MedImmune, LLC, priority 2014, dated 2018)

B1: 39S: lead optimized monoclonal antibody derived from the 1.39.1 antibody; VH SEQ ID NO:15, VL SEQ ID NO:16 (antibody, V domains shown)
VH: EVQLVESGGGLVKPGGSLRLSCAASGFTFSSYSMSWVRQAPGKGLEWVSSISSSSSYIYYADSVKGRFTISRDNAKNSLYLQMNSLRAEDTAVYYCARGGDAYNYYYFDYWGQGTLVTVSS
VL: DIVMTQTPLSLSVTPGQPASISCKSSQSVFFRSNNKNILAWYLQKPGQPPQLLIYWASSRESGVPDRFSGSGSGTDFTLKISRVEAEDVGVYYCQQYFGSPFTFGPGTKVDIK

Tests used:
[1] = tested on: MDA-MB-453; test: In vitro cytotoxic activity (Cell Titer Glo); format: cell-based, human; conditions: MDA-MB-453, 3 to 4 days; read-out: In vitro potency (EC50 in pM)
Experimental: A panel of human cancer cell lines expressing various levels of HER2 was used to evaluate the cytotoxic activity of bispecific ADC (Table 5 in Example 1). Briefly, cells were harvested, resuspended, and plated in serum-containing culture media at a density of 5,000 to 20,000 per well (depending on the growth kinetics of each cell line) of 96-well plates in a volume of 100 μL. A 2× concentration of each dose of antibody or ADC to be tested was prepared by diluting the test articles in culture medium. One hundred microliters of each test article was added to cells in triplicate such that the final dose curve ranged from 5 nM down to 0.08 pM in a stepwise 1:4 serial dilution series. The treated cells were incubated at 37° C./5% CO2 for 3 to 4 days, depending on the growth kinetics of each particular cell line. Cell viability was determined using Cell Titer Glo according to manufacturer's instructions. Data are analyzed by the GraphPad Prism software and presented as percent growth inhibition relative to the untreated control. EC50 values were determined using Sigmoidal non-linear regression analysis with GraphPad Prism software and were summarized in Table 6.

[2] = biological target: T1, chimeric human/mouse Her2 variants (Mus musculus, UniProt P70424, A197S/A354V/A504E/D184L/D202G/D360A/D439N/E308D/E418D/E503D/E575V/E586V/E640D/F420L/G218R/G341R/G353E/G389N/G498A/G506V/G558A/H204R/H397Q/H452S/I215S/I220V/I273V/I357V/I623A/K394Q/K549Q/K559R/L174F/L284P/L507G/M185I/N203S/N319H/N385D/N479H/N513H/P182L/P194H/P210S/P318L/Q421P/R175H/R231P/R430Q/R471H/R557N/R641K/S223G/S387A/S453W/S497T/S514Q/S573G/S580P/S594P/S595P/S596F/T199M/T222A/T299A/V173I/V183T/V390T/V511A/W548L/Y578F/Y617F); test: ProteOn SPR binding of 39S to captured chimeric Her2 variants; conditions: variant KO_I, swapped human HER2 amino acids 1-145; apparent affinity, variant captured on chip
T1 construct: His tag; made in house; host or cells: HEK293F (transient, pEBNA vector; captured from culture supernatant)
Excerpt: (§1) The domain II of human HER2 was identified as the epitope of 39S by swapping domains between human and mouse Her2 molecules. Mouse Her2 was chosen as the chimeric partner because it is not recognized by 39S, but shares 85% sequence identity with human HER2. Chimeric variants targeting each domain of HER2 were constructed (see method below) as listed in Table 4, including four knock-out (KO, loss-of-function) variants replacing domain I, II, III, or IV of human HER2 with the mouse counterpart, and one knock-in (KI, gain-of-function) variant grafting the domain II of human HER2 into mouse Her2 molecule. The chimeric variant nomenclature denotes types of variants (KO/KI) and the number of domains swapped. The binding profiles of 39S to these variants were characterized using a SPR based instrument ProteOn™ by capturing variants on sensor surfaces using anti-human and mouse Her2 polyclonal antibodies (see method below). The expression of the variants was monitored by anti-His polyclonal antibody using ProteOn™. […] Therefore, the domain II (amino acid 146-310) of human HER2 was identified as the epitope-containing domain of 39S by both loss-of-function and gain-of-function variants.
(§2) We further refined the epitope of 39S and identified the region of amino acid 192-208 in domain II as the critical epitope region. […] Seven knock-out variants were generated by replacing each of the following human HER2 regions with the mouse counterparts, including amino acids 146-208, 159-162, 171-187, 192-208, 250-261, 276-285, and 295-296. In addition, one knock-in variant was constructed by grafting the region of amino acid 192-208 of human HER2 to the mouse molecule. The variant nomenclature denotes types of variants (KO/KI) and the swapped regions with amino acid numbering. All variants had detectable expression levels by anti-His polyclonal antibody (Table 4). […] The binding of 39S was not impacted when substituting any other regions of human HER2 with mouse amino acids (KO_159-162, KO_171-187, KO_250-261, KO_276-285, and KO_295-296). […] Taken together, the region of amino acid 192-208 in domain II of human HER2 was identified as the functional epitope of 39S.
(§3) The variant nomenclature denotes types of variants (KO/KI) and the swapped regions with amino acid numbering. Amino acid positions were denoted basing on the numbering scheme of mature human HER2 sequences without its signal peptide. The expression levels of all variants were monitored by an anti-His polyclonal antibody. The binding profiles of 39S to these variants were characterized using a SPR based instrument ProteOn™ by capturing variants on sensor surfaces using anti-human and mouse Her2 polyclonal antibodies.
(§4) Construction and expression of chimeric human/mouse Her2 variants were constructed as follows. Briefly, DNAs encoding chimeric human/mouse Her2 variants with a His tag were assembled and amplified by overlapping PCR using human and mouse Her2 plasmids as templates (MedImmune). The assembled DNAs were cloned into the mammalian expression vector pEBNA (MedImmune). HEK293F cells were then transiently transfected with the various constructs using 293fectin and standard protocols according to the manufacturer's instructions (Invitrogen).
(§5) The binding characteristics of 39S to chimeric human/mouse variants were studied using a ProteOn™ XPR36 instrument (BioRad). Standard amine coupling was used to immobilize an anti-human or mouse Her2 polyclonal antibody (R&D System) in 10 mM sodium acetate (pH 5.0) to the surface of a GLC biosensor chip at ˜5000 resonance units (RU) for each channel. The chimeric proteins in cell culture supernatant were injected and captured by anti-human or mouse polyclonal antibodies onto the GLC surface with a ˜200RU response. Anti-HER2 mAb 39S was diluted in phosphate-buffered saline (PBS) (pH 7.4) with 0.005% Tween-20 from 10 nM to 0.625 nM (1:2 dilution), and injected at 100 μL/min for 180 sec with a 600-second dissociation time. […]

[3] = biological target: T2, chimeric human/mouse Her2 variants (Homo sapiens, UniProt P04626, A221T/G222S/P230R/R217G/S214I/V219I); test: as above; conditions: variant KO_192-208
T2 construct: His tag; made in house; host or cells: HEK293F (transient, pEBNA vector; captured from culture supernatant)
Excerpt: as §1, §2, §3, §4, §5

Row | Molecule | EC50 [1] [pM] | Kd [2] [nM] | The binding affinity of 39S (KD) [2] | The binding affinity of 39S (KD) [3]
1 | T-DM1 [reference compound] | 344 |  |  | 
2 | B1 |  | 0.095 | retained binding | did not bind and No
